Reference: patent publication US20240124575A1
Read-outs that look alike come from different tables or passages of the source. Values belong to the substance of their own block, whether it stands above or below them.

Columns and labels:
[1] = target: human CD33 on U937 cells (endogenous) (human) (UniProt P20138); test: FACS, U937 cells
[2] = target: human CD33 on CHO-K1 cells (CHO-K1-human CD33) (human) (UniProt P20138); test: FACS, clone CHO-K1-human CD33 B11
[3] = target: human CD33 on CHO-K1 cells (CHO-K1-human CD33) (human) (UniProt P20138); test: FACS, clone CHO-K1-human CD33 C8
[4] = target: human CD33 on CHO-K1 cells (CHO-K1-human CD33) (human) (UniProt P20138); test: FACS, clone CHO-K1-human CD33 B8
[5] = target: murine CD33 protein (murine) (UniProt Q63994); test: ELISA, coated murine CD33, antibody 0.1 nM
[6] = target: monkey CD33 protein (monkey); test: ELISA, coated monkey CD33, antibody 0.0001 nM
[7] = target: monkey CD33 protein (monkey); test: ELISA, coated monkey CD33, antibody 100 nM
[8] = target: monkey CD33 protein (monkey); test: ELISA, coated monkey CD33, antibody 100 nM; remark: listed apart in the source
[9] = target: monkey CD33 protein (monkey); test: ELISA, coated monkey CD33, antibody 0.01 nM
[10] = target: murine CD33 protein (murine) (UniProt Q63994); test: ELISA, coated murine CD33, antibody 100 nM
[11] = target: murine CD33 protein (murine) (UniProt Q63994); test: ELISA, coated murine CD33, antibody 0.0001 nM
[12] = target: monkey CD33 on HEK293T-monkey CD33 cells (monkey); test: FACS on HEK293T-monkey CD33 cells
[13] = target: monkey CD33 protein (monkey); test: ELISA, coated monkey CD33, antibody 0.01 nM; remark: listed apart in the source
[14] = target: monkey CD33 protein (monkey); test: ELISA, coated monkey CD33, antibody 10 nM
[15] = target: murine CD33 protein (murine) (UniProt Q63994); test: ELISA, coated murine CD33, antibody 0.01 nM
[16] = target: monkey CD33 protein (monkey); test: ELISA, coated monkey CD33, antibody 0.001 nM
[17] = target: monkey CD33 protein (monkey); test: ELISA, coated monkey CD33, antibody 0.1 nM
[18] = target: murine CD33 protein (murine) (UniProt Q63994); test: ELISA, coated murine CD33, antibody 0.001 nM
[19] = target: monkey CD33 protein (monkey); test: ELISA, coated monkey CD33, antibody 1 nM
[20] = target: monkey CD33 protein (monkey); test: ELISA, coated monkey CD33, antibody 10 nM; remark: listed apart in the source
[21] = target: monkey CD33 protein (monkey); test: ELISA, coated monkey CD33, antibody 0.001 nM; remark: listed apart in the source
[22] = target: monkey CD33 protein (monkey); test: ELISA, coated monkey CD33, antibody 1 nM; remark: listed apart in the source
[23] = target: murine CD33 protein (murine) (UniProt Q63994); test: ELISA, coated murine CD33, antibody 1 nM
[24] = target: monkey CD33 on HEK293T-monkey CD33 cells (monkey); test: FACS on HEK293T-monkey CD33 cells; remark: listed apart in the source
[25] = target: monkey CD33 protein (monkey); test: ELISA, coated monkey CD33, antibody 0.0001 nM; remark: listed apart in the source
[26] = target: murine CD33 protein (murine) (UniProt Q63994); test: ELISA, coated murine CD33, antibody 10 nM

human CD33 on CHO-K1 cells (CHO-K1-human CD33) (human), sequence (P20138 18-364): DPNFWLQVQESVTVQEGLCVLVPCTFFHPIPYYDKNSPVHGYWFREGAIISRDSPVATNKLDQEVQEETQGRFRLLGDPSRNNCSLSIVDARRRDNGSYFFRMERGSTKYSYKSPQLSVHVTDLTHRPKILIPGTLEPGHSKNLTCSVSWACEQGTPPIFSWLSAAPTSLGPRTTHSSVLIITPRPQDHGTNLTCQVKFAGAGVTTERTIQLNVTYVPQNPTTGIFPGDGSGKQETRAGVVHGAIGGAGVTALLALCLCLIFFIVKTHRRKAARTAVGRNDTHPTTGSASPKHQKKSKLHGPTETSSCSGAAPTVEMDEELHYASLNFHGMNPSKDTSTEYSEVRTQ
murine CD33 protein (murine), sequence (Q63994 18-240 limits assumed): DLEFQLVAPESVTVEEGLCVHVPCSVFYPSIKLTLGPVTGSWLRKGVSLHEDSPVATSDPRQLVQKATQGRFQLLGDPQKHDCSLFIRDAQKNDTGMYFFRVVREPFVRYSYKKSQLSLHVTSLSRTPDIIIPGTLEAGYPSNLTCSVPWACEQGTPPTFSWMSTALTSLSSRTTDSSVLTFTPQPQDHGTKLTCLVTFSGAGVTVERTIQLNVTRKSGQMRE
human CD33 on U937 cells (endogenous) (human), sequence (P20138 18-364): as the sequence (P20138 18-364) above

Mean fluorescence intensity of cells [1]: 114 MFI
Mean fluorescence intensity of cells [2]: 30.9 MFI
Mean fluorescence intensity of cells [3]: 30.9 MFI
Mean fluorescence intensity of cells [4]: 30.9 MFI
Substance: IgG subtype control (antibody)

OD450 [5]: 0.06 OD450
OD450 [6]: 0.06 OD450
OD450 [7]: 0.06 OD450
OD450 [8]: 0.08 OD450
OD450 [9]: 0.05 OD450
OD450 [10]: 0.08 OD450
OD450 [11]: 0.06 OD450
Max MFI [12]: 107 MFI
OD450 [13]: 0.04 OD450
OD450 [14]: 0.06 OD450
OD450 [15]: 0.06 OD450
OD450 [16]: 0.04 OD450
OD450 [17]: 0.05 OD450
OD450 [18]: 0.06 OD450
OD450 [19]: 0.04 OD450
OD450 [20]: 0.05 OD450
OD450 [21]: 0.07 OD450
OD450 [22]: 0.05 OD450
OD450 [23]: 0.06 OD450
Max MFI [24]: 322 MFI
OD450 [25]: 0.05 OD450
OD450 [26]: 0.07 OD450
Substance: anti-hel-hIgG1 antibody
